We go through 1 molecule from paper PMC4256047, “Structural and Functional Profiling of Environmental Ligands for Estrogen Receptors” (Environmental Health Perspectives, 2014).

Holding throughout (conditions): both partners purified
Experiment [1] deals with T1, human wt-ERβ LBD (estrogen receptor beta ligand-binding domain, amino acids 261-502) (human, UniProt Q92731 261-502).
T1 construct: Cloned into pET-32a; N-terminal thioredoxine-hexahistidine tag removed with TEV protease; not shown: thioredoxin, N-terminal, cleaved; His6, N-terminal, cleaved
T1 sequence (Q92731 261-502): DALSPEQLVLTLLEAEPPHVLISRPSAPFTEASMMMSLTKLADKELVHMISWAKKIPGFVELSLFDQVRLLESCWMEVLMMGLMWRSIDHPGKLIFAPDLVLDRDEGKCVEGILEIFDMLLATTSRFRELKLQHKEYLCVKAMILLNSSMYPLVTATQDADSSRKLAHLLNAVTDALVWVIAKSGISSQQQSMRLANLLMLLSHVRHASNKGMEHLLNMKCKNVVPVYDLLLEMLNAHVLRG
Description: fluorescence polarisation; fluorescence anisotropy; 4 nM fluorescein-SRC-1 NR2 peptide, LBD diluted 2-fold from 10 uM (ERα) or 20 uM (ERβ); in the absence of ligand (apo-receptor); 20 mM Tris pH 8.0, 150 mM NaCl, 5 mM DTT, 10% glycerol.

The target in experiment [2] is T2, human wt-ERα LBD (estrogen receptor alpha ligand-binding domain, amino acids 302-552) (human, UniProt P03372 302-552).
T2 sequence (looked up): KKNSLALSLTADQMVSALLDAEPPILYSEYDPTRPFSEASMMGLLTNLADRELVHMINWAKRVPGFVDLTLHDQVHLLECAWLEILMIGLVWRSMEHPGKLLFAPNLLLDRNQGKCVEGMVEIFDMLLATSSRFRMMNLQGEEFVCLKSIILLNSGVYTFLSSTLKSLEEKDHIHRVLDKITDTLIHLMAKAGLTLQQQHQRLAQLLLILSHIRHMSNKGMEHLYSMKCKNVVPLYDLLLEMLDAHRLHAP
The description is as above.

The target in experiment [3] is T1, human wt-ERβ LBD (estrogen receptor …). Description: fluorescence polarisation; fluorescence anisotropy; 4 nM fluorescein-SRC-1 NR2 peptide, LBD diluted 2-fold from 10 uM (ERα) or 20 uM (ERβ); with TCBPA at 20 uM (ERα) or 40 uM (ERβ); 20 mM Tris pH 8.0, 150 mM NaCl, 5 mM DTT, 10% glycerol.
The target is the same in experiment [4]. Nature of the experiment: fluorescence polarisation; fluorescence anisotropy; 4 nM fluorescein-SRC-1 NR2 peptide, LBD diluted 2-fold from 10 uM (ERα) or 20 uM (ERβ); with BBP at 20 uM (ERα) or 40 uM (ERβ); 20 mM Tris pH 8.0, 150 mM NaCl, 5 mM DTT, 10% glycerol. Background: In fluorescence polarisation assays a small probe gives low polarisation when free and higher when bound to something large.

Experiment [5] has the same target. Nature of the experiment: fluorescence polarisation; fluorescence anisotropy; 4 nM fluorescein-SRC-1 NR2 peptide, LBD diluted 2-fold from 10 uM (ERα) or 20 uM (ERβ); with BP-2 at 20 uM (ERα) or 40 uM (ERβ); 20 mM Tris pH 8.0, 150 mM NaCl, 5 mM DTT, 10% glycerol.
Experiment [6] shares this target. Nature of the experiment: fluorescence polarisation; fluorescence anisotropy; 4 nM fluorescein-SRC-1 NR2 peptide, LBD diluted 2-fold from 10 uM (ERα) or 20 uM (ERβ); with OHT (4-hydroxytamoxifen) at 20 uM (ERα) or 40 uM (ERβ); 20 mM Tris pH 8.0, 150 mM NaCl, 5 mM DTT, 10% glycerol.
Experiment [7] deals with T2, human wt-ERα LBD (estrogen receptor …). Described as above.
Experiment [8] concerns the target T1, human wt-ERβ LBD (estrogen receptor …). Description: fluorescence polarisation; fluorescence anisotropy; 4 nM fluorescein-SRC-1 NR2 peptide, LBD diluted 2-fold from 10 uM (ERα) or 20 uM (ERβ); with BPC at 20 uM (ERα) or 40 uM (ERβ); 20 mM Tris pH 8.0, 150 mM NaCl, 5 mM DTT, 10% glycerol.
For experiment [9], the target named is T2, human wt-ERα LBD (estrogen receptor …). Described as above.
The target is the same in experiment [10]. Description: fluorescence polarisation; fluorescence anisotropy; 4 nM fluorescein-SRC-1 NR2 peptide, LBD diluted 2-fold from 10 uM (ERα) or 20 uM (ERβ); with E2 at 20 uM (ERα) or 40 uM (ERβ); 20 mM Tris pH 8.0, 150 mM NaCl, 5 mM DTT, 10% glycerol.
Experiment [11] addresses T1, human wt-ERβ LBD (estrogen receptor …). Nature of the experiment: fluorescence polarisation; fluorescence anisotropy; 4 nM fluorescein-SRC-1 NR2 peptide, LBD diluted 2-fold from 10 uM (ERα) or 20 uM (ERβ); with HPTE at 20 uM (ERα) or 40 uM (ERβ); 20 mM Tris pH 8.0, 150 mM NaCl, 5 mM DTT, 10% glycerol.

Where no end group is shown, it is not given here. fluorescein = fluorescein label on the N-terminus of the peptide

B1: fluorescein-RHKILHRLLQEGS peptide corresponding to the NR box 2-binding motif of SRC-1 (peptide)
peptide: fluorescein-RHKILHRLLQEGS
notes: also called SRC-1 NR2 peptide; fluorescein-labeled SRC-1 NR2 peptide; source: bought: EZbiolab
The Kd is the concentration at which binding is half-saturated. A high value points to lower affinity. For B1, the Kd in experiment [1] is 4.54 µM; in [2], 6.28 µM; in experiment [3], 4.33 µM; in experiment [4], 10.6 µM; in [5], 0.99 µM; in experiment [6], 38.8 µM. The dissociation constant Kd in experiment [7] was 23.6 µM; in [8], 6.32 µM; in experiment [9], 9.07 µM; in [10], 0.11 µM; in experiment [11], 10.9 µM.
